# Experimental data reported in the RNAGym collection of RNA variant scans (doi:10.1073/pnas.2313332121).
# Fewer inactive variants are shown than the library holds.
# B1: TPR 5TU (parent)
# chain: GGAUCUUCUCGAUCUAACAAAAAAGACAAAUCUGCCACAAAGCUUGAGAGCAUCUUCGGAUGCAGAGGCGGCAGCCUUCGGUGGCGCGAUAGCGCCAACGUUCUCAACUAUGACACGCAAAACGCGUGCUCCGUUGAAUGGAGUUUAUCAUG
# Variants of: B1
# Experiment: polymerase ribozyme fitness, log enrichment relative to wild type (log ratio); higher = more active; in vitro selection for triplet polymerase activity
# How it was run: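 To select mutant libraries of each subunit of a heterodimeric triplet polymerase ribozyme, built by PCR and transcribed, each was annealed with a biotinylated primer, partner subunit and triplets, then incubated frozen at −7 °C. Extended constructs were gel-excised, captured on streptavidin beads and amplified by RT-PCR, in one round carried out in triplicate. Illumina sequencing of input and output libraries kept genotypes with ≥10 input reads and ≥1 read per output. Fitness is the base-2 logarithm of genotype enrichment relative to wild-type enrichment, from inverse-variance-weighted replicate averages.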
row,Variant,polymerase ribozyme fitness (log ratio)
1,U6C A73U G84A G100U G124A C125G U145G,≤ -4.2
2,U6A U7C G83A C125A,-3.64
3,U6A U146G A150G G152A,-1.38
4,U6C U31G G50C C69G G94C A119U U151A,≤ -4.2
5,U6G A20U A73U U134C U145G,-3.22
6,C5U A20C A29G A115C U130G C132U U146C,≤ -4.2
7,U6G A20U C93A C116A U135A,-3.29
8,U6G A22C C35A G58C G74U C76U U78C G133U U151C,≤ -4.2
9,C5G U13A A23U A52C C87A C105U A107G,≤ -4.2
10,C5U C54G,-0.591
11,U6C G11A A37G A52G G86A G100A,≤ -4.2
12,C5G G46A G92C,-4.13
13,U6G C10G C87G,≤ -4.2
14,C5G U13C A17C G83U U134C A137C,≤ -4.2
15,U6G A16C A22U C51U C76U C85A C118U,-3.97
16,U6G A22G U139A,≤ -4.2
17,U6C U13C C14U G34A G80C A91G,≤ -4.2
18,C5U A52U G67U C93U C96U A115C,≤ -4.2
19,C5G U56A G94C A120G,-1.95
20,C5U C54U U82A C95G A147U,-1.27
21,U6A G58U U61A A66G U82C U139C G152A,≤ -4.2
22,U6G A29C A73U G86U,≤ -4.2
23,U6G A23U A73G C76A A98G C105G A113C A119G,≤ -4.2
24,U6A A12G A17G A40G C96A A137G,-3.74

row,Variant,polymerase ribozyme fitness (log ratio)
1,C5U G84A A150C,≤ -4.2
2,U6A G81C G94U C125U,-2.57
3,C5U C85G U104C,-3.03
4,U6A G34A C69U A73G U77A C79A C87A C96U C105A A107U G136A U139A,≤ -4.2
5,U6G A30C C43G A52C C54U U77A C85G A119G U148G,≤ -4.2
6,U6A A16U A107C C131G,≤ -4.2
7,U6C C87U,-1.52
8,U6C C87A,≤ -4.2
9,U6C A39C A66G U90A C93A C99A G100C C103A C116G A147C,≤ -4.2
10,C5U C51U G84A A150G,-2.47
11,U6C G83C A91C U145C,≤ -4.2
12,C5U C85U,-0.24
13,U6G A28C C76G G92U,≤ -4.2
14,U6A G42C A49C A52C C75U C85U A91U,≤ -4.2
15,U6C C27U U145C,-3.08
16,U6A G80C G94A,≤ -4.2
17,U6C U55G C132A A138G,≤ -4.2
18,U6A U7G U31C G34A A41U,-3.68
19,U6A C8G A60C G62A C85A C103A,≤ -4.2
20,C5G U53A,-1.8
21,C5U A23C A40C A49U G70C G94A,≤ -4.2
22,U6A A12U,0.206
23,C5U A28C U56A U77C G94A,≤ -4.2
24,U6A C54A C95G A98U,-2.26

row,Variant,polymerase ribozyme fitness (log ratio)
1,U6A A12C G58U A91C A98U C103G C131U,≤ -4.2
2,C5U A28U C51G A52C G67A G94C,≤ -4.2
3,U6A G86A C87G,≤ -4.2
4,U6C C27U G50C A52G G58A C87U,≤ -4.2
5,U6A A23U A30U G46A A47C,≤ -4.2
6,C5G G83U A98U C105U,-1.03
7,C5U A64C G84A A122G G124U U144G U151A,≤ -4.2
8,U6C C14U U44A G68U G92U A98G C99G,≤ -4.2
9,C5U A41U G68A G94A C99G U102G A115G C125G,≤ -4.2
10,C5U A21U,1.4
11,U6A C35A C63U C69U C76A G83C,≤ -4.2
12,C5U U6G C79G,≤ -4.2
13,C5U U82A C85A C99A U101G G140C,≤ -4.2
14,C5U U7C A21U G86A C131A,-4.16
15,C5U A23U C32U G74U G83A C114U G136U C149U,≤ -4.2
16,U6A A22U G59U A73U U109G,-3.52
17,C5U U15G U33C,-4.17
18,C5U A12U A30C G59C C125G G126U,≤ -4.2
19,C5U A12U G84U,-1.92
20,U6G A21U G94A U104G U127A,≤ -4.2
21,C5U C8G A23U U45A G84C,≤ -4.2
22,C5U G84A A142U,-0.976
23,U6A A24C G48A C93U U127G U144A,≤ -4.2
24,C5G U6G C38U A41U A47U G86A A91C,≤ -4.2

row,Variant,polymerase ribozyme fitness (log ratio)
1,C5G U56A G84U U144A,-3.4
2,C5G U9C A16C A28G A30U C32G C35A G59U G92U C105U,≤ -4.2
3,U6A A37G G80A C87A U102G G152A,≤ -4.2
4,U6G A60C C85A C96U G124U,-4.11
5,U6C C105G U144C G152A,-3.94
6,U6G A121U,-0.506
7,U6A A29G G74A C103G A107G A122U,≤ -4.2
8,U6C C87A G88U C96A A120U C123U,≤ -4.2
9,C5G U55G C85U C99A,-2.86
10,U6C A60G G117U,-1.75
11,U6A A22C C75U G84A A97G C108G A113C C116A U135G,≤ -4.2
12,U6C G94A C105U U127A,≤ -4.2
13,U6A A12C A16U A19U C75G G84C A97G A98U U102A G124U,≤ -4.2
14,C5U G46U C85G,-2.05
15,U6A C79A G86U A89C C103G,≤ -4.2
16,C5U C27G C95U C96U G141C,≤ -4.2
17,C5U A22U C27G C36G G83U C103G C116U G136U,≤ -4.2
18,U6A A22C G50A U61G C79U C85A G143U A147C,≤ -4.2
19,U6C A21U U101A U104A U148A,≤ -4.2
20,U6C A37C C93U,-3.12
21,U6G A12U A23G C38A G83U U90G C95A,≤ -4.2
22,U6C A40U U56A G59U C87U A98U C118U,-0.984
23,U6G A22U A40G C57A G94A,-2.43
24,U6C A17U U33C C51G C57G G83U C95G A98G U127G,≤ -4.2

row,Variant,polymerase ribozyme fitness (log ratio)
1,U6C G11C A16C G58C A142C,-3.7
2,U6A G68A G83C U90G C118U,≤ -4.2
3,U6A C51U A52U U56A G83U G84A C114U,≤ -4.2
4,C5U G84A C95A,0.351
5,C5G G59U C99U A119G,-1.53
6,U6A A52C G81U C85G,-3.49
7,C5U C8G U9G U61G U77A G84A U146C,≤ -4.2
8,U6A C38G G42C G86U C93U U127A,≤ -4.2
9,U6A G25A A26C G50U A52G C76G C118G G136A,≤ -4.2
10,U6A C14G C85G U90G A113U,≤ -4.2
11,C5U A19C A39G G80C C87U C105G U135A,≤ -4.2
12,U6A U9G C35G A60G C69G G88C C96A,≤ -4.2
13,U6A A22G C125U,-0.424
14,U6G A120G,-0.399
15,U6A C27U A41C U55A G62C G71C C85A G143U,≤ -4.2
16,C5U A28C A64U G84A,≤ -4.2
17,C5U C8G A137U U145A A147C,≤ -4.2
18,U6C C95U A98U C99U,-2.4
19,C5U A16C C51U,-1.73
20,U6G A40U A66G U82A C96A G100U,≤ -4.2
21,C5G U9C A16C A28G A30U C32G C35A G59U G92U C105U G143C,≤ -4.2
22,U6A C14U A91C A150U,≤ -4.2
23,C5G G50A C87U C103G U111C C132U,≤ -4.2
24,U6C C85U A121U U135C,-3.27

row,Variant,polymerase ribozyme fitness (log ratio)
1,U6C C10G,-3.97
2,U6C A47G G59C G92U C99A C118G,-3.32
3,C5G U45G G86U C93G A97G,-3.16
4,C5G U7C A16C C27U C32G A49C U53G C125A A137U G143C,≤ -4.2
5,C5G U13A A29G C51U G94C C114G G140C G141C U144A,≤ -4.2
6,U6A C54U G58C C85A U134C,-1.4
7,U6G A40U A49U A66C G94U A98U U134C G140A,≤ -4.2
8,U6G A16U G58A G141U,-1.34
9,C5U G84U U148G,≤ -4.2
10,C5U A22C C85A,-9.25e-05
11,C5G G46A G88A C95G U102G U135C A147C,≤ -4.2
12,U6G C10A A16G A20C U53A C54G A64U C85U G86A A113U U145C,≤ -4.2
13,C5G U9A C54U U146C,-2.79
14,U6A G86C,-2.98
15,U6G A26C G136A A142U U146A,≤ -4.2
16,U6A U55A,-1.4
17,U6A U55G,-0.118
18,U6G A40U U56A C93U A106C,-1.92
19,U6A C85U G140C,-3.99
20,U6G A29G,-3.97
21,C5U A21G G59C C93G,-1.3
22,C5U C51A,-0.999
23,U6A G88C C116U,≤ -4.2
24,U6A U44G A98U A107U,-1.58

row,Variant,polymerase ribozyme fitness (log ratio)
1,U6G A12U A20U C51A C96A G100U C118A U148C,≤ -4.2
2,U6A C69A G92U A98G U111C G152C,≤ -4.2
3,U6A C87U,-0.846
4,C5U U33A G88U C96U U127C,≤ -4.2
5,U6G A28G G58U C85U,≤ -4.2
6,C5G U7A U33G A91G C93U C118G A122G U144G,≤ -4.2
7,C5G G50A U61G G62A A66C C96A U146A,≤ -4.2
8,C5U A24U C32G U53G C123G A147G U151G,≤ -4.2
9,C5G U101G,0.0588
10,C5G U144G,0.355
11,C5U A24G G94A C123U G140U,≤ -4.2
12,U6C A47C G81C C87G C96U,≤ -4.2
13,U6A C35A U104C,-3.88
14,U6A A30C G58C A60U C76G A106U C149G,≤ -4.2
15,C5U G50A C54A C76U G84U C95U C114U,≤ -4.2
16,U6G A73U,-0.322
17,U6C A49C U55A U104C U146C,≤ -4.2
18,C5U A19G C57U G84U G117U A120U,-2.48
19,C5G U45G U55G G86U C87A A91U,≤ -4.2
20,C5U A20C C43G C76G C108G C114U A120U U146G,≤ -4.2
21,C5G G50U C57U G92C A120G,-2.75
22,C5G G34A U134A,-3.83
23,U6C A20C A28C A37U G42U G71A C85U C99G A106G C131G,≤ -4.2
